Measured values taken from US20140023646A1.

Tests used:
[1] = target: recombinant KIR 2DL3 protein (entire extracellular domain, produced in E. coli, refolded) (human) (UniProt P43628); assay: SPR (Biacore), KIR 2DL3 immobilized on CM5 chip, soluble antibody as analyte
[2] = target: recombinant KIR 2DL1 protein (entire extracellular domain, produced in E. coli, refolded) (human) (UniProt P43626); assay: SPR (Biacore), KIR 2DL1 immobilized on CM5 chip, soluble antibody as analyte
[3] = target: KIR receptors on NK cells (all inhibitory KIR2DL receptors); assay: cell-based or functional assay

Row | Kd [1] | Kd [2] | increased expression of CD107a on NK cells [3] | Substance
1 | 2 nM | 10.9 nM |  | monoclonal antibody DF200 produced by hybridoma DF200
2 |  |  | 0.5 to 13.6% | human anti-KIR monoclonal antibody 1-7F9
